Assay results from article PMC2120604.

B1: GST-lamin B1 tail (residues 391-588) (domain or fragment)
chain: LSPSPSSRVTVSRASSSRSVRTTRGKRKRVDVEESEASSSVSISHSASATGNVCIEEIDVDGKFIRLKNTSEQDQPMGGWEMIRKIGDTSVSYKYTSRYVLKAGQTVTVWAANAGVTASPPTDLIWKNQNSWGTGEDVKVILKNSQGEEVAQRSTVFKTTIPEEEEEEEEEPIGVAVEEERFHQQGAPRASNKSCAIM
modifications: 125I-labelled (Iodogen) where used as the radiolabelled ligand
B2: GST-lamin B2 tail (residues 382-596) (domain or fragment)
chain: LSPSPSSRITISRATSSSSSSSGVGMSVGQGRGKRRRLETEDTSGSPSRASRVSSGSRLAQQTVATGVVNIDEVDPEGRFVRLKNSSDKDQSLGNWRIKRQVLEGEDIAYKFTPKYVLRAGQTVTVWAAGAGATHSPPSTLVWKSQTNWGPGESFRTALVSADGEEVAVKAAKHSSVQGRENGEEEEEEEAEFGEEDLFHQQGDPRTTSRGCRLM
modifications: 125I-labelled (Iodogen) where used as the radiolabelled ligand

Target: rat liver chromatin fragments (rat (endogenous in liver))
Assay: radioligand binding

Kd	Molecule
300 nM	GST-lamin C tail (residues 389-572) (from UniProt P02545-2 389-572) (domain or fragment)
120 nM	B1
230 nM	B2
